Test results as given in PMC4956616.

Columns and labels:
[1] = molecular target: NT-495-labeled Arl1^GTP, P40616; assay: fluorescence anisotropy; details: chain shown with the change;; parent: 26 ± 5
[2] = molecular target: NT-495-labeled Arl1^GTP (human) (UniProt P40616); assay: fluorescence polarisation; fluorescence anisotropy, NT-495-labeled Arl1 titrated with DCB variants, 20°C, 50 mM Tris-HCl pH 8.0, 110 mM KCl, 1 mM DTT, 5 mM MgCl2, 0.001% Triton X-100, 0.1% Tween-20, 5 μM GTP; single-site (1:1) model

NT-495-labeled Arl1^GTP, P40616, sequence (P40616 15-181 Q71L): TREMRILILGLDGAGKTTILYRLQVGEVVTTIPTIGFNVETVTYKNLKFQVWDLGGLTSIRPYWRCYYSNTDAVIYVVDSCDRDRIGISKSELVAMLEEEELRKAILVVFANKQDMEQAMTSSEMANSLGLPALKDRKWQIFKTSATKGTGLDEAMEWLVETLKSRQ

| Kd [1] [µM] | fold increase of Kd against wild type [2] [fold] | Binder | further results |
| --- | --- | --- | --- |
| 86 | – | His6-DCB^BIG1 (human BIG1 residues 1–228), Q9Y6D6 L156D (protein) MYEGKKTKNMFLTRALEKILADKEVKKAHHSQLRKACEVALEEIKAETEKQSPPHGEAKAGSSTLPPVKSKTNFIEADKYFLPFELACQSKCPRIVSTSLDCLQKLIAYGHLTGNAPDSTTPGKKLIDRIIETICGCFQGPQTDEGVQLQIIKALDTAVTSQHIEIHEGTVLQAVRTCYNIYLASKNLINQTTAKATLTQMLNVIFARMENQALQEAKQMEKERHRQH | – |
| – | > 5 | His6-DCB^BIG1 Gln200Glu (domain or fragment) MYEGKKTKNMFLTRALEKILADKEVKKAHHSQLRKACEVALEEIKAETEKQSPPHGEAKAGSSTLPPVKSKTNFIEADKYFLPFELACQSKCPRIVSTSLDCLQKLIAYGHLTGNAPDSTTPGKKLIDRIIETICGCFQGPQTDEGVQLQIIKALLTAVTSQHIEIHEGTVLQAVRTCYNIYLASKNLINQTTAKATLTEMLNVIFARMENQALQEAKQMEKERHRQH | – |
| – | > 5 | His6-DCB^BIG1 Lys105Asp (domain or fragment) MYEGKKTKNMFLTRALEKILADKEVKKAHHSQLRKACEVALEEIKAETEKQSPPHGEAKAGSSTLPPVKSKTNFIEADKYFLPFELACQSKCPRIVSTSLDCLQDLIAYGHLTGNAPDSTTPGKKLIDRIIETICGCFQGPQTDEGVQLQIIKALLTAVTSQHIEIHEGTVLQAVRTCYNIYLASKNLINQTTAKATLTQMLNVIFARMENQALQEAKQMEKERHRQH | – |
| 140 | – | His6-DCB^BIG1 (human BIG1 residues 1–228), Q9Y6D6 Q200E (protein) MYEGKKTKNMFLTRALEKILADKEVKKAHHSQLRKACEVALEEIKAETEKQSPPHGEAKAGSSTLPPVKSKTNFIEADKYFLPFELACQSKCPRIVSTSLDCLQKLIAYGHLTGNAPDSTTPGKKLIDRIIETICGCFQGPQTDEGVQLQIIKALLTAVTSQHIEIHEGTVLQAVRTCYNIYLASKNLINQTTAKATLTEMLNVIFARMENQALQEAKQMEKERHRQH | – |
| – | – | His6-DCB^BIG1 (human BIG1 residues 1–228) (domain or fragment) MYEGKKTKNMFLTRALEKILADKEVKKAHHSQLRKACEVALEEIKAETEKQSPPHGEAKAGSSTLPPVKSKTNFIEADKYFLPFELACQSKCPRIVSTSLDCLQKLIAYGHLTGNAPDSTTPGKKLIDRIIETICGCFQGPQTDEGVQLQIIKALLTAVTSQHIEIHEGTVLQAVRTCYNIYLASKNLINQTTAKATLTQMLNVIFARMENQALQEAKQMEKERHRQH | Kd [2]: 26 µM |
| 110 | – | His6-DCB^BIG1 (human BIG1 residues 1–228), Q9Y6D6 K105D (protein) MYEGKKTKNMFLTRALEKILADKEVKKAHHSQLRKACEVALEEIKAETEKQSPPHGEAKAGSSTLPPVKSKTNFIEADKYFLPFELACQSKCPRIVSTSLDCLQDLIAYGHLTGNAPDSTTPGKKLIDRIIETICGCFQGPQTDEGVQLQIIKALLTAVTSQHIEIHEGTVLQAVRTCYNIYLASKNLINQTTAKATLTQMLNVIFARMENQALQEAKQMEKERHRQH | – |
